Laboratory results published in paper PMC10279719 (Nature Communications, 2023).

Assays:
Conditions in all cases: both partners purified
[1] = biological target: T1, PEAK3 tandem-pS69 peptide (residues 54-74) (human, N-terminal acetyl; phosphoserine at S69; C-terminal amide); experiment: ITC; binary; peptide in the cell (20 µM, or 16.8 µM after a buffer titration), protein in the syringe; 25 °C, 20 mM HEPES pH 7.4, 150 mM NaCl, 1 mM TCEP; single binding site model
T1 construct: source: synthetic peptide, bought: Mimotopes (95% purity)
T1 peptide: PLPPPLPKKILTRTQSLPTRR

[2] = biological target: T2, PEAK3 tandem peptide, non-phosphorylated (residues 54-74) (human, N-terminal acetyl; C-terminal amide); experiment: as above
T2 construct: source: synthetic peptide, bought: Mimotopes (95% purity)
T2 peptide: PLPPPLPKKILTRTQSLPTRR

[3] = biological target: T3, PEAK1^IDR1 (residues 1082-1746), from insect cells (human, UniProt Q9H792 1082-1746, biotin (EZ-Link NHS-PEG4-Biotin, 1:1 molar ratio)); experiment: SPR; biotinylated PEAK proteins (with or without Src phosphorylation) captured with a biotin CAPture kit, CrkII NSH3 as analyte; Biacore 8K+, 20 °C, HBS-TP (150 mM NaCl); 1 M NaCl regeneration; steady state
T3 construct: human PEAK1, UniProt Q9H792, residues 1082-1746; Purifies as a homodimer; Phosphorylation at the tandem 14-3-3 motif was not observed
T3 sequence (looked up): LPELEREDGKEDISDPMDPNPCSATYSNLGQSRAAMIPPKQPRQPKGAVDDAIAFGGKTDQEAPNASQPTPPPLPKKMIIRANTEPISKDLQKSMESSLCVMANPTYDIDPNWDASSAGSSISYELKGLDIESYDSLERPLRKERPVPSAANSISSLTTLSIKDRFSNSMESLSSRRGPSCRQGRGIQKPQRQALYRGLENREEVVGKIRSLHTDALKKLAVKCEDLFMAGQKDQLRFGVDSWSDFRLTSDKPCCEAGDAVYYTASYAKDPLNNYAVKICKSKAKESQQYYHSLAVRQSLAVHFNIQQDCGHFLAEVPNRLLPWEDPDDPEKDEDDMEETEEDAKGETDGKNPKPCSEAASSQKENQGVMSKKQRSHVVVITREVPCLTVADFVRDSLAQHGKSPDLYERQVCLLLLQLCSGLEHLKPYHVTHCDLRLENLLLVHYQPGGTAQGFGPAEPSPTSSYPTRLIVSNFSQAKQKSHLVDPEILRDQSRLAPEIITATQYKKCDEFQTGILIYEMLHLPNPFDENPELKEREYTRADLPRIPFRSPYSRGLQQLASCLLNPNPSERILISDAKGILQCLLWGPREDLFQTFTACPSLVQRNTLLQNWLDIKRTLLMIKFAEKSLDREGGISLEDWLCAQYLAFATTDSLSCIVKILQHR

[4] = biological target: T4, full length PEAK3 (PEAK3^FL, residues 1-473), from E. coli, phosphorylated by Src (human, UniProt Q6ZS72 1-473, phosphorylated with Src kinase (Y24 is the site shown for PEAK3^FL by MS/MS); other Src sites not stated; biotin (EZ-Link NHS-PEG4-Biotin, 1:1 molar ratio)); experiment: as above
T4 construct: also called PEAK3-FL E.coli (+ Src phosphorylation); source: E. coli C41 (DE3), purified; phosphorylated in vitro with recombinant Src kinase domain
T4 sequence (looked up): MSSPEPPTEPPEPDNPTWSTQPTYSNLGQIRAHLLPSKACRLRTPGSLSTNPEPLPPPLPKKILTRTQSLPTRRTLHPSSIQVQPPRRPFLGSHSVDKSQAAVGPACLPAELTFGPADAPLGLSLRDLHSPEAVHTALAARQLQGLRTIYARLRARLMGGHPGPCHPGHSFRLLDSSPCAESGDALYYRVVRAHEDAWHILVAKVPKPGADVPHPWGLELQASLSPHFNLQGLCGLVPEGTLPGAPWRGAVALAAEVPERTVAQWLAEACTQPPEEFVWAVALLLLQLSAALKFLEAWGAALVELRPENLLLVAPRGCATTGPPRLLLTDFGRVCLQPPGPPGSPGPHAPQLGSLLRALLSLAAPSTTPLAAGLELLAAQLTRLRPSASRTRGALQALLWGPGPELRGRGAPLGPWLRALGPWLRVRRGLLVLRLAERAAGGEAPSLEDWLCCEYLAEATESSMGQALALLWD

[5] = biological target: T2, PEAK3 tandem peptide, …; experiment: ITC; second of two sequential titrations ('ternary'); CrkII NSH3 (400 µM) in the syringe titrated into the non-phosphorylated PEAK3 tandem peptide (16.8 µM) with the 14-3-3γ of the first titration, which did not bind, still in the cell; 25 °C, 20 mM HEPES pH 7.4, 150 mM NaCl, 1 mM TCEP

stoichiometry N [1]: 0.823
stoichiometry N [2]: 0.904
Kd [3]: 3.7 µM
Kd [4]: 13.1 µM
stoichiometry N [5]: 0.654
B1: CrkII N-terminal SH3 domain (CrkII^NSH3, residues 134-191) (domain or fragment, human, UniProt P46108-1 134-191, looked up)
chain: AEYVRALFDFNGNDEEDLPFKKGDILRIRDKPEEQWWNAEDSEGKRGMIPVPYVEKYR
notes: human CrkII NSH3 domain, UniProt P46108-1, residues 134-191; Amine coupled to a CM5 chip in a2; analyte in a4; in the syringe in ITC
